Target: ClpXP (ClpX with ClpP protease) (E. coli, UniProt P0A6H1 1-424; P0A6G7 15-207)
Experiment: ultrafiltration

ClpXP (ClpX with ClpP protease), sequence (P0A6H1 whole entry, chain 1 of 2): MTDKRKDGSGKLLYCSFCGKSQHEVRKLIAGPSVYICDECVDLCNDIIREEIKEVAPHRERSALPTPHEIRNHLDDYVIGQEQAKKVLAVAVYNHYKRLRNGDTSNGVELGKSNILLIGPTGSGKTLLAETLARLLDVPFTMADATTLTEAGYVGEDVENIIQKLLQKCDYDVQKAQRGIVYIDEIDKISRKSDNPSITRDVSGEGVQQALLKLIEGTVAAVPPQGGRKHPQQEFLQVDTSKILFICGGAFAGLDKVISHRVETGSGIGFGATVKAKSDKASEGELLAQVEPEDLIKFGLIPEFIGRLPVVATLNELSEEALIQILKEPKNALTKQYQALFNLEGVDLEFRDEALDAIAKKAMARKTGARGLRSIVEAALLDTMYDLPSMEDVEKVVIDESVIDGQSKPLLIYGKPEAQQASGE
ClpXP (ClpX with ClpP protease), sequence (P0A6G7 15-207, chain 2 of 2): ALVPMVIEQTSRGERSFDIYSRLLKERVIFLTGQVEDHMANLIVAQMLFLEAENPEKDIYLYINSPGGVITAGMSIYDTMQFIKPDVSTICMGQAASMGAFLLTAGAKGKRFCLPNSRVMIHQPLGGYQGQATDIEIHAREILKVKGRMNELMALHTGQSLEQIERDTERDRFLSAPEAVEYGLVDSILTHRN

B1: Gfp-IDR_(FtsZ) (Gfp fused to the C-terminal 67 amino acids of E. coli FtsZ, residues 317-383) (domain or fragment, UniProt P0A9A6 317-383, looked up)
chain: MDKRPEITLVTNKQVQQPVMDRYQQHGMAPLTQEQKPVAKVVNDNAPQTAKEPDYLDIPAFLRKQAD
- binding result: binds

B2: Gfp-IDR_(FtsZ) mut-1 (Ala substitutions at FtsZ positions 352 through 358) (domain or fragment, E. coli, UniProt P0A9A6 317-383, looked up)
chain: MDKRPEITLVTNKQVQQPVMDRYQQHGMAPLTQEQAAAAAAANDNAPQTAKEPDYLDIPAFLRKQAD
- binding result: binds
